The record followed here is patent publication US20160250307A1.

The target in assay [1] is HLA-A*24 (human). Briefly: UV-ligand exchange, anti-b2m ELISA; grade: exchange yield >=75%. Background: In an ELISA, binding on a coated surface is turned into a signal by an enzyme label.
For assay [2], the target named is HLA-A*24 (human). The assay is described as follows: UV-ligand exchange, anti-b2m ELISA; grade: exchange yield >=50%.
The target in assay [3] is HLA-A*02 (human). Described as above.

In assay [1], RYNEKCFKL came in with a peptide exchange yield above 75%.

For the molecule KYPDIISRI, in assay [1], the peptide exchange yield is above 75%.

Molecule SYITKPEKW had a peptide exchange yield in assay [1] above 75%.

In turn, AYPAIRYLL yielded a peptide exchange yield in assay [1] above 75%.

The molecule LYWSHPRKF displayed a peptide exchange yield in assay [1] above 75%.

In assay [1], IYLERFPIF had a peptide exchange yield above 75%.

For IYIPSYFDF, in assay [1], the peptide exchange yield is above 75%.

The molecule RYAPPPSFSEF came in with a peptide exchange yield in assay [1] above 75%.

Regarding VYQGAIRQI, in assay [1], the peptide exchange yield was above 75%.

Molecule IYADVGEEF returned a peptide exchange yield in assay [1] above 75%.

Consider IYPGAFVDL, for which, in assay [1], the peptide exchange yield is above 75%.

In turn, RWPKKSAEF showed a peptide exchange yield in assay [1] above 75%.

In assay [2], AFSPDSHYLLF had a peptide exchange yield of 50 to 75%.

Consider AYLKWISQI, for which the peptide exchange yield in assay [1] is above 75%.

The molecule AYLLQPSQF displayed a peptide exchange yield in assay [1] above 75%.

As for YYNKVSTVF, the peptide exchange yield in assay [1] was above 75%.

VYGLQRNLL: in assay [1], the peptide exchange yield was above 75%.

In assay [1], AYGTYRSNF returned a peptide exchange yield above 75%.

SYNPAENAVLL: the peptide exchange yield in assay [1] was above 75%.

Take VFHPRQELI: the peptide exchange yield in assay [2] fell in the range of 50 to 75%.

Take DYIPYVFKL: the peptide exchange yield in assay [1] is above 75%.

KFVTVQATF came in with a peptide exchange yield in assay [1] above 75%.

With ALDSGAFQSV (modifications not checked), in assay [3], the peptide exchange yield was 50 to 75%.

KWPETPLLL displayed a peptide exchange yield in assay [1] above 75%.

Molecule AYVNTFHNI had a peptide exchange yield in assay [1] above 75%.

As for IYVTSIEQI, the peptide exchange yield in assay [1] is above 75%.

YYGILQEKI gave a peptide exchange yield in assay [1] above 75%.

In assay [1], VYGDVISNI had a peptide exchange yield above 75%.

The molecule IYTGNISSF gave a peptide exchange yield in assay [1] above 75%.

In turn, SYPTFFPRF gave a peptide exchange yield in assay [1] above 75%.

Take RYSAGWDAKF: the peptide exchange yield in assay [1] was above 75%.
